Measurements published in paper PMC10415362, “Mechanism of U6 snRNA oligouridylation by human TUT1”.

Biological target: T1, hTUT1_ZF-RRM (Homo sapiens, UniProt Q9H6E5 1-140)
T1 sequence: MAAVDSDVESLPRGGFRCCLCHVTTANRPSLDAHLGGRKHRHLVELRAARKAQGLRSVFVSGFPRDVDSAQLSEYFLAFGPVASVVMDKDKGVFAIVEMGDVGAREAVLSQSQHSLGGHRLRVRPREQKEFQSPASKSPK
Assay: EMSA; 10 mM MgCl2; EMSA: 50 mM Tris-Cl pH 8.5, 100 mM NaCl, 10 mM MgCl2, 10 mM beta-mercaptoethanol, 10% glycerol, room temperature 15 min; RNA 50 nM (U6) or 100 nM (U6_mini); protein 0-1000 nM
Conditions: protein: recombinant; tags: His tag implied (pET22b, Ni-NTA); hairpin with 5' single strand

B1: U6_mini (structured_RNA)
RNA: GGAUACUAAAAUUGGAACGAUACAGAGUUCGCUCGUGAAGCGUUCCAUAUUUU
Kd: 204 ± 41 nM
